According to the RNAGym collection of RNA variant scans (doi:10.7554/elife.80360):

B1: CPEB3 Ribozyme (parent)
chain: GGGGGCCACAGCAGAAGCGUUCACGUCGCGGCCCCUGUCAGAUUCUGGUGAAUCUGCGAAUUCUGCUGU

Variants of: B1
Assay: self-cleavage, relative activity (ratio to wild type); higher = more cleavage; co-transcriptional

Row | Variant | self-cleavage
1 | GGGGGCCAAAGCAGAACCGUUCACGUCGCGGCCCCUGUCAGAUUCUGGUGAAUCUGCGAAUUCUGCUGU [C9A G17C] | 0.204
2 | GGGGGCCAAAGCAGAAGCGUUCACGUCGCGGCCCCUGUCAGGUUCUGGUGAAUCUGCGAAUUCUGCUGU [C9A A42G] | 0.997
3 | GGGGGCCAAAGCAGAAGCGUUCACGUCGCGGCCCCUGUCAGUUUCUGGUGAAUCUGCGAAUUCUGCUGU [C9A A42U] | 0.997
4 | GGGGGCCAAAGCAGAAGCGUUCACGGCGCGGCCCCUGUCAGAUUCUGGUGAAUCUGCGAAUUCUGCUGU [C9A U26G] | 0.983
5 | GGGGGCCAAAGCAGAAGCGUUCACGUCGCGGCCCCUGUCAUAUUCUGGUGAAUCUGCGAAUUCUGCUGU [C9A G41U] | 0.955
6 | GGGGGCCAAAGCAGAAGCGCUCACGUCGCGGCCCCUGUCAGAUUCUGGUGAAUCUGCGAAUUCUGCUGU [C9A U20C] | 0.197
7 | GGGGGCCAAAGCAGACGCGUUCACGUCGCGGCCCCUGUCAGAUUCUGGUGAAUCUGCGAAUUCUGCUGU [C9A A16C] | 0.56
8 | GGGGGCCAAAGCAGAGGCGUUCACGUCGCGGCCCCUGUCAGAUUCUGGUGAAUCUGCGAAUUCUGCUGU [C9A A16G] | 0.992
9 | GGGGGCCAAAGCAGAAGCGUUCACGUCGCGGCCCCUGUCAGAUGCUGGUGAAUCUGCGAAUUCUGCUGU [C9A U44G] | 1.01
10 | GGGGGCCAAAGCAGAAGCGUUCACGUCGCGGCCCCUGACAGAUUCUGGUGAAUCUGCGAAUUCUGCUGU [C9A U38A] | 0.989
11 | GGGGGCCAAAGCAGAAGCGUUCACGUCGCGGCCCCUGGCAGAUUCUGGUGAAUCUGCGAAUUCUGCUGU [C9A U38G] | 0.152
12 | GGGGGCCAAAGCAGAAGCGUUCACGUAGCGGCCCCUGUCAGAUUCUGGUGAAUCUGCGAAUUCUGCUGU [C9A C27A] | 0.798
13 | GGGGGCCAAAGCAGAAGCGUUCACGUCGCGGCCCCUGUCAGAUUCUGGUGAAUCUGCGAAUUCUGUUGU [C9A C66U] | 1.02
14 | GGGGGCCAAAGCAGAAGCGUUCACGUCGCGGCCCCAGUCAGAUUCUGGUGAAUCUGCGAAUUCUGCUGU [C9A U36A] | 0.315
15 | GGGGGCCAAGGCAGAAGCGUUCACGUCGCGGCCCCUGUCAGAUUCUGGUGAAUCUGCGAAUUCUGCUGU [C9A A10G] | 1.01
16 | GGGGGCCAACGCAGAAGCGUUCACGUCGCGGCCCCUGUCAGAUUCUGGUGAAUCUGCGAAUUCUGCUGU [C9A A10C] | 1.02
17 | GGGGGCCAAAGCAGAAGCGUUCACGUCGCGGCCCCUGUCAGAUUCUGGUGAAUCUGCGAAUUGUGCUGU [C9A C63G] | 0.806
18 | GGGGGCCAAAGCAGAAGCGUUCACGUCGCGGCCCCUGUCAGAUUCUGGUGAAUCUGCGAAUUAUGCUGU [C9A C63A] | 0.953
19 | GGGGGCCAAAGCAGAAGCGUUCACGUCGCGGCCCCUGUCAGAUUCUGGUGAAUCUCCGAAUUCUGCUGU [C9A G56C] | 0.921
20 | GGGGGCCAAAGCAGAAGCGUUCACGUCGCGGCCCCUGUCAGAUUCUGGUGAAUCUUCGAAUUCUGCUGU [C9A G56U] | 0.98
21 | GGGGGCCAAAGCAGAAGCGUUCACGUCGCGGCCCCUGUCAGAUUCUGGUGAAUCUGCGUAUUCUGCUGU [C9A A59U] | 0.897
22 | GGGGGCCAAAGCAGAAGCGUUCCCGUCGCGGCCCCUGUCAGAUUCUGGUGAAUCUGCGAAUUCUGCUGU [C9A A23C] | 1.01
23 | GGGGGCCAAAGCAGAAGCGUUCACGUCGCGGCCCCUGUCAGAUUCUGGUGAAGCUGCGAAUUCUGCUGU [C9A U53G] | 1
24 | GGGGGCCAAAGCAGAAGCGUUCACGUCGCGGCCCCUGUCAGAUUCUGGUGAAUCUGCGAAUUCUUCUGU [C9A G65U] | 0.844
25 | GGGGGCCAAAGCAGAAGCGUUCACGUCGCGGCCCCUGUCAGAUUCUGGUGAAUCUGCGAAUUCUACUGU [C9A G65A] | 0.955
26 | GGGGGCCAAAGCAGAAGCGUUCACGUCGCGGCCCCUGUCAGAUUCUGGUGAAUCUGCGAAUUCUGCUGU [C9A] | 1.03

Row | Variant | self-cleavage
27 | GGGGGCCAGAGCAGAAGCGUUCACGUCGCGGCCCCUGUCAGAUUCUGGUGAAUCUGCGAAUUCUGCUGU [C9G] | 1.01
28 | GGGGGCCAAAGCAGAAGCGUUCACGUCGCGGCCCCUGUCAGAUUCUGGUGAAUCUGCGAAUUCUGCUGA [C9A U69A] | 1.06
29 | GGGGGCCAAAGCAGAAGCGUUCACGUCGCGGCCCCUGUCAGAUUCUGGAGAAUCUGCGAAUUCUGCUGU [C9A U49A] | 1.03
30 | GGGGGCCAAAGCAGAAGCGUUCACGUCGCGGCCCCUGUCAGAUUCUGGGGAAUCUGCGAAUUCUGCUGU [C9A U49G] | 1.04
31 | GGGGGCCAAAGCAGAAGCGUUCACCUCGCGGCCCCUGUCAGAUUCUGGUGAAUCUGCGAAUUCUGCUGU [C9A G25C] | 0.228
32 | GGGGGCCAAAGCAGAAGCGUUCACGUCGCGGCCCCUGUCAGAUUCUGGUGAAUCGGCGAAUUCUGCUGU [C9A U55G] | 0.874
33 | GGGGGCCAAAGCAGAAGCGUUCACGUCGCGGCCCCUGUCAGAUUCUGGUGAAUCCGCGAAUUCUGCUGU [C9A U55C] | 0.982
34 | GGGGGCCAAAGCAGAAGCGUUCACGUCGCGGCCCCUUUCAGAUUCUGGUGAAUCUGCGAAUUCUGCUGU [C9A G37U] | 0.401
35 | GGGGGCCUCAGCAGAAGCGUUCACGUCGCGGCCCCUGUCAGAUUCUGGUGAAUCUGCGAAUUCUGCUGG [A8U U69G] | 1.06
36 | GGGGGCCAAAGAAGAAGCGUUCACGUCGCGGCCCCUGUCAGAUUCUGGUGAAUCUGCGAAUUCUGCUGU [C9A C12A] | 0.806
37 | GGGGGCCAAAGCAGAAGGGUUCACGUCGCGGCCCCUGUCAGAUUCUGGUGAAUCUGCGAAUUCUGCUGU [C9A C18G] | 0.26
38 | GGGGGCCAAAGCAAAAGCGUUCACGUCGCGGCCCCUGUCAGAUUCUGGUGAAUCUGCGAAUUCUGCUGU [C9A G14A] | 0.725
39 | GGGGGCCAAAGCAUAAGCGUUCACGUCGCGGCCCCUGUCAGAUUCUGGUGAAUCUGCGAAUUCUGCUGU [C9A G14U] | 0.767
40 | GGGGGCCAAAGCAGCAGCGUUCACGUCGCGGCCCCUGUCAGAUUCUGGUGAAUCUGCGAAUUCUGCUGU [C9A A15C] | 0.931
41 | GGGGGCCAAAGCAGUAGCGUUCACGUCGCGGCCCCUGUCAGAUUCUGGUGAAUCUGCGAAUUCUGCUGU [C9A A15U] | 0.886
42 | GGGGGCCAAAGCAGAAGCGUUCACGUCGCGGCCCCUGUCAGAUUCGGGUGAAUCUGCGAAUUCUGCUGU [C9A U46G] | 1.04
43 | GGGGGCCAAAGCAGAAGCGUUAACGUCGCGGCCCCUGUCAGAUUCUGGUGAAUCUGCGAAUUCUGCUGU [C9A C22A] | 0.251
44 | GGGGGCCAAAGCAGAAGCGUUGACGUCGCGGCCCCUGUCAGAUUCUGGUGAAUCUGCGAAUUCUGCUGU [C9A C22G] | 0.181
45 | GGGGGCCAAAGCAGAAGCGUUUACGUCGCGGCCCCUGUCAGAUUCUGGUGAAUCUGCGAAUUCUGCUGU [C9A C22U] | 0.424
46 | GGGGGCCAAAGCCGAAGCGUUCACGUCGCGGCCCCUGUCAGAUUCUGGUGAAUCUGCGAAUUCUGCUGU [C9A A13C] | 0.965
47 | GGGGGCCAAAGCAGAAGCGUUCACGUCGCGGCCCCUGUCAGAUUCUGGUGAAUCUGCGAAUUCUGCAGU [C9A U67A] | 1.03
48 | GGGGGCCAAAGCAGAAGCGUUCACGUCGCGGCCCCUGUCAGAUUCUCGUGAAUCUGCGAAUUCUGCUGU [C9A G47C] | 1
49 | GGGGGCCAAAGCAGAAGCGUUCAUGUCGCGGCCCCUGUCAGAUUCUGGUGAAUCUGCGAAUUCUGCUGU [C9A C24U] | 0.934
50 | GGGGGCCAAAGCAGAAGCGUUCAAGUCGCGGCCCCUGUCAGAUUCUGGUGAAUCUGCGAAUUCUGCUGU [C9A C24A] | 0.891
51 | GGGGGCCAAAGCAGAAGCGUUCACGUCGCGGCCCCUGUCAGAUUCUGGUGAAUCUGCGAAUCCUGCUGU [C9A U62C] | 0.931
52 | GGGGGCCAAAGCAGAAGCGUUCACGUCGCGGCCCCUGUCAGAUUCUGGUGAAUCUGCGAAUGCUGCUGU [C9A U62G] | 0.943

Row | Variant | self-cleavage
53 | GGGGGCCAAAGCAGAAGCGUUCACGUCACGGCCCCUGUCAGAUUCUGGUGAAUCUGCGAAUUCUGCUGU [C9A G28A] | 0.265
54 | GGGGGCCAAAGCAGAAGCGUUCACGUCGCGGCCCCUGUCAGAUUCUGGUGAAUCUGCCAAUUCUGCUGU [C9A G58C] | 1.04
55 | GGGGGCCAAAGCAGAAGCGUUCACGUCGCGGCCCCUGUCAGAUUCUGGUGAAUCUGCUAAUUCUGCUGU [C9A G58U] | 1.04
56 | GGGGGCCAAAGCAGAAGCGUUCACGUCGCGGCCGCUGUCAGAUUCUGGUGAAUCUGCGAAUUCUGCUGU [C9A C34G] | 0.995
57 | GGGGGCCAAAGCAGAAGCGUUCACGUCGCGGCCCCUGUCAGAUUCUGGUAAAUCUGCGAAUUCUGCUGU [C9A G50A] | 1.02
58 | GGGGGCCAAAGCAGAAGCGUUCACGUCGCGGCCCCUGUCAGAUUCUGGUUAAUCUGCGAAUUCUGCUGU [C9A G50U] | 0.999
59 | GGGGGCCAAAGCAGAAGCGUUCACGUCGCGGCCCCUGUCAGAUUCUGGUCAAUCUGCGAAUUCUGCUGU [C9A G50C] | 1.03
60 | GGGGGCCAAAGCAGAAGCGUUCACGUCGCGGCCCCUGUCAGAUUCUGAUGAAUCUGCGAAUUCUGCUGU [C9A G48A] | 1.01
61 | GGGGGCCAAAGCAGAAGCGUUCACGUCGCGGCCCCUGUUAGAUUCUGGUGAAUCUGCGAAUUCUGCUGU [C9A C39U] | 0.973
62 | GGGGGCCAAAGCAGAAGCGUUCACGUCGUGGCCCCUGUCAGAUUCUGGUGAAUCUGCGAAUUCUGCUGU [C9A C29U] | 0.992
63 | GGGGGCCAAAGCAGAAGCGUUCACGUCGAGGCCCCUGUCAGAUUCUGGUGAAUCUGCGAAUUCUGCUGU [C9A C29A] | 0.86
64 | GGGGGCCAAAGCAGAAGCGUUCACGUCGCGGCCCCUGUCAGACUCUGGUGAAUCUGCGAAUUCUGCUGU [C9A U43C] | 1.03
65 | GGGGGCCUCAGCAGAAGCGUUCACGUCGCGGCCCCUGUCAGAUUCUGGUGAAUCUGCGAAUUCUGCCGU [A8U U67C] | 1
66 | GGGGGCCUCAGCAGAAGCGUUCACGUCGCGGCCCCUGUCAGAUUCUGGUGAAUCUGCGAAUUCUGCAGU [A8U U67A] | 1.03
67 | GGGGGCCUCAGCAGAAGCGUUCACGUCGCGGCCCCUGUCAGAUUCUGGUGAAUCUGCGAAUUCGGCUGU [A8U U64G] | 0.87
68 | GGGGGCCAAAGCAGAAGCGUUCACGUCGCGGCCCCUGUCGGAUUCUGGUGAAUCUGCGAAUUCUGCUGU [C9A A40G] | 1
69 | GGGGGCCAAAGCAGAAGCGUUCACGUCGCGGCCCCUGUCAGAUUCUGGUGAGUCUGCGAAUUCUGCUGU [C9A A52G] | 1.02
70 | GGGGGCCAAAGCAGAAGCGUUCACGUCGCGGCCCCUGUCAGAUUCUGGUGAUUCUGCGAAUUCUGCUGU [C9A A52U] | 1.03
71 | GGGGGCCAAAGCAGAAGCGUUCACGUCGCGGCCCCUGUCAGAUUCUGGUGACUCUGCGAAUUCUGCUGU [C9A A52C] | 1.01
72 | GGGGGCCAAAGCAGAAGCGUUCACGUCGCGGCCCCUGUCAGAUUGUGGUGAAUCUGCGAAUUCUGCUGU [C9A C45G] | 1.03
73 | GGGGGCCAAAGCAGAAGCGUUCACGUCGCGACCCCUGUCAGAUUCUGGUGAAUCUGCGAAUUCUGCUGU [C9A G31A] | 1
74 | GGGGGCCAAAGCAGAAGCGUUCACGUCGCGCCCCCUGUCAGAUUCUGGUGAAUCUGCGAAUUCUGCUGU [C9A G31C] | 0.291
75 | GGGGGCCAAAGCAGAAGCGUUCACGUCGCGUCCCCUGUCAGAUUCUGGUGAAUCUGCGAAUUCUGCUGU [C9A G31U] | 0.961
76 | GGGGGCCAAAGCAGAAGCGUACACGUCGCGGCCCCUGUCAGAUUCUGGUGAAUCUGCGAAUUCUGCUGU [C9A U21A] | 1.01
77 | GGGGGCCAAAGCAGAAGCGUUCACGUCGCGGGCCCUGUCAGAUUCUGGUGAAUCUGCGAAUUCUGCUGU [C9A C32G] | 0.843
78 | GGGGGCCAAAGCAGAAGCGUUCACGUCGCGGACCCUGUCAGAUUCUGGUGAAUCUGCGAAUUCUGCUGU [C9A C32A] | 1
